Experimental data from patent publication US20110105394A1 (Novo Nordisk, published 2011).
*1 amine or outer side, *2 acyl side, *3 side chain or, on linkers, in order; H or OH if unused. Bridges are numbered along the chain shown (N, C = ends). Where no end group is shown, it is not given here. Side-chain parts run from the residue outwards. The star is where a group is joined. X2 = (S)‑4‑Carboxy‑4‑(19-carboxynonadecanoylamino)butyryl, O=C(O)CCCCCCCCCCCCCCCCCCC(=O)N[C@@H](CCC(=O)*)C(=O)O; X1 = (S)‑4‑Carboxy‑4‑(17-carboxyheptadecanoylamino)butyryl, O=C(O)CCCCCCCCCCCCCCCCC(=O)N[C@@H](CCC(=O)*)C(=O)O; C20 diacid = O=C(O)CCCCCCCCCCCCCCCCCCC(=O)*; γGlu = O=C(O)[C@H](CCC(=O)[*:2])N[*:1]; AEEA = NCCOCCOCC(=O)O

T1: Amylin 3(a) receptor (human calcitonin receptor (CTa) with RAMP-3) (human, UniProt P30988 25-474; O60896 24-148, limits assumed)
T1 sequence (looked up) 1: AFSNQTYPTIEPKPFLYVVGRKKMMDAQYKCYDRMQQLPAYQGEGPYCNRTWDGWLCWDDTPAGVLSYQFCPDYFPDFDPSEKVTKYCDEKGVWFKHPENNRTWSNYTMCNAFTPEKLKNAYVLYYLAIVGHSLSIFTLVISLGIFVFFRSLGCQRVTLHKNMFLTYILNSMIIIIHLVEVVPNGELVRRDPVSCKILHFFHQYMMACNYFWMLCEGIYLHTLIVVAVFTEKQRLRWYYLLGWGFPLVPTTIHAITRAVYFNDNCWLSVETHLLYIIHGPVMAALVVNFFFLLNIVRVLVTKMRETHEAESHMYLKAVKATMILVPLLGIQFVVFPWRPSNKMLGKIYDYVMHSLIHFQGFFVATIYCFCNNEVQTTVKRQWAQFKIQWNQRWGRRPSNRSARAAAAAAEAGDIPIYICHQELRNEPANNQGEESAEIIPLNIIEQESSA
T1 sequence (looked up) 2: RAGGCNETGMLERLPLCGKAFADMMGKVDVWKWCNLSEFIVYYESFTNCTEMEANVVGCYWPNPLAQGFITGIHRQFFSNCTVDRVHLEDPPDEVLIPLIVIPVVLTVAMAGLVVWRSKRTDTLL

B1: N-alpha-[4-(19-Carboxynonadecanoylamino)butyryl]-Arg-[Arg17]-pramlintide (peptide)
peptide: {C20 diacid-4‑aminobutyryl}-RKCNTATCATQRLANFLRHSSNNFGPILPPTNVGSNTY-NH2
modifications: disulfide 3-8
B2: N-epsilon3-(19-carboxynonadecanoyl-Glu-Glu-Arg-Glu)-[Lys3,His17,Asp21]-pramlintide (peptide)
peptide: KCK([Glu-Arg-Glu-Glu-C20 diacid])TATCATQRLANFLHHSSDNFGPILPPTNVGSNTY-NH2
modifications: disulfide 2-7
B3: N-alpha-[(S)-4-Carboxy-4-(19-carboxynonadecanoylamino)butyryl]-Arg-[Arg17]-pramlintide (peptide)
peptide: X2-RKCNTATCATQRLANFLRHSSNNFGPILPPTNVGSNTY-NH2
modifications: disulfide 3-8
SMILES: CC[C@H](C)[C@H](NC(=O)[C@@H]1CCCN1C(=O)CNC(=O)[C@H](Cc1ccccc1)NC(=O)[C@H](CC(N)=O)NC(=O)[C@H](CC(N)=O)NC(=O)[C@H](CO)NC(=O)[C@H](CO)NC(=O)[C@H](Cc1c[nH]cn1)NC(=O)[C@H](CCCNC(=N)N)NC(=O)[C@H](CC(C)C)NC(=O)[C@H](Cc1ccccc1)NC(=O)[C@H](CC(N)=O)NC(=O)[C@H](C)NC(=O)[C@H](CC(C)C)NC(=O)[C@H](CCCNC(=N)N)NC(=O)[C@H](CCC(N)=O)NC(=O)[C@@H](NC(=O)[C@H](C)NC(=O)[C@@H]1CSSC[C@H](NC(=O)[C@H](CCCCN)NC(=O)[C@H](CCCNC(=N)N)NC(=O)CC[C@H](NC(=O)CCCCCCCCCCCCCCCCCCC(=O)O)C(=O)O)C(=O)N[C@@H](CC(N)=O)C(=O)N[C@@H]([C@@H](C)O)C(=O)N[C@@H](C)C(=O)N[C@@H]([C@@H](C)O)C(=O)N1)[C@@H](C)O)C(=O)N[C@@H](CC(C)C)C(=O)N1CCC[C@H]1C(=O)N1CCC[C@H]1C(=O)N[C@H](C(=O)N[C@@H](CC(N)=O)C(=O)N[C@H](C(=O)NCC(=O)N[C@@H](CO)C(=O)N[C@@H](CC(N)=O)C(=O)N[C@H](C(=O)N[C@@H](Cc1ccc(O)cc1)C(N)=O)[C@@H](C)O)C(C)C)[C@@H](C)O
B4: N-alpha-[(S)-4-Carboxy-4-(19-carboxynonadecanoylamino)butyryl]-Arg-[Pro17]-pramlintide (peptide)
peptide: X2-RKCNTATCATQRLANFLPHSSNNFGPILPPTNVGSNTY-NH2
modifications: disulfide 3-8
SMILES: CC[C@H](C)[C@H](NC(=O)[C@@H]1CCCN1C(=O)CNC(=O)[C@H](Cc1ccccc1)NC(=O)[C@H](CC(N)=O)NC(=O)[C@H](CC(N)=O)NC(=O)[C@H](CO)NC(=O)[C@H](CO)NC(=O)[C@H](Cc1c[nH]cn1)NC(=O)[C@@H]1CCCN1C(=O)[C@H](CC(C)C)NC(=O)[C@H](Cc1ccccc1)NC(=O)[C@H](CC(N)=O)NC(=O)[C@H](C)NC(=O)[C@H](CC(C)C)NC(=O)[C@H](CCCNC(=N)N)NC(=O)[C@H](CCC(N)=O)NC(=O)[C@@H](NC(=O)[C@H](C)NC(=O)[C@@H]1CSSC[C@H](NC(=O)[C@H](CCCCN)NC(=O)[C@H](CCCNC(=N)N)NC(=O)CC[C@H](NC(=O)CCCCCCCCCCCCCCCCCCC(=O)O)C(=O)O)C(=O)N[C@@H](CC(N)=O)C(=O)N[C@@H]([C@@H](C)O)C(=O)N[C@@H](C)C(=O)N[C@@H]([C@@H](C)O)C(=O)N1)[C@@H](C)O)C(=O)N[C@@H](CC(C)C)C(=O)N1CCC[C@H]1C(=O)N1CCC[C@H]1C(=O)N[C@H](C(=O)N[C@@H](CC(N)=O)C(=O)N[C@H](C(=O)NCC(=O)N[C@@H](CO)C(=O)N[C@@H](CC(N)=O)C(=O)N[C@H](C(=O)N[C@@H](Cc1ccc(O)cc1)C(N)=O)[C@@H](C)O)C(C)C)[C@@H](C)O
B5: N-alpha-[2-(2-{2-[4-(S)-Carboxy-4-(19-carboxynonadecanoylamino)butyrylamino]ethoxy}ethoxy)acetyl]-Arg-[Ala17]-pramlintide (peptide)
peptide: {C20 diacid-γGlu-AEEA}-RKCNTATCATQRLANFLAHSSNNFGPILPPTNVGSNTY-NH2
modifications: disulfide 3-8
SMILES: CC[C@H](C)[C@H](NC(=O)[C@@H]1CCCN1C(=O)CNC(=O)[C@H](Cc1ccccc1)NC(=O)[C@H](CC(N)=O)NC(=O)[C@H](CC(N)=O)NC(=O)[C@H](CO)NC(=O)[C@H](CO)NC(=O)[C@H](Cc1c[nH]cn1)NC(=O)[C@H](C)NC(=O)[C@H](CC(C)C)NC(=O)[C@H](Cc1ccccc1)NC(=O)[C@H](CC(N)=O)NC(=O)[C@H](C)NC(=O)[C@H](CC(C)C)NC(=O)[C@H](CCCNC(=N)N)NC(=O)[C@H](CCC(N)=O)NC(=O)[C@@H](NC(=O)[C@H](C)NC(=O)[C@@H]1CSSC[C@H](NC(=O)[C@H](CCCCN)NC(=O)[C@H](CCCNC(=N)N)NC(=O)COCCOCCNC(=O)CC[C@H](NC(=O)CCCCCCCCCCCCCCCCCCC(=O)O)C(=O)O)C(=O)N[C@@H](CC(N)=O)C(=O)N[C@@H]([C@@H](C)O)C(=O)N[C@@H](C)C(=O)N[C@@H]([C@@H](C)O)C(=O)N1)[C@@H](C)O)C(=O)N[C@@H](CC(C)C)C(=O)N1CCC[C@H]1C(=O)N1CCC[C@H]1C(=O)N[C@H](C(=O)N[C@@H](CC(N)=O)C(=O)N[C@H](C(=O)NCC(=O)N[C@@H](CO)C(=O)N[C@@H](CC(N)=O)C(=O)N[C@H](C(=O)N[C@@H](Cc1ccc(O)cc1)C(N)=O)[C@@H](C)O)C(C)C)[C@@H](C)O
B6: N-alpha-[(S)-4-Carboxy-4-(19-carboxynonadecanoylamino)butyryl]-Arg-[Ser17]-pramlintide (peptide)
peptide: X2-RKCNTATCATQRLANFLSHSSNNFGPILPPTNVGSNTY-NH2
modifications: disulfide 3-8
SMILES: CC[C@H](C)[C@H](NC(=O)[C@@H]1CCCN1C(=O)CNC(=O)[C@H](Cc1ccccc1)NC(=O)[C@H](CC(N)=O)NC(=O)[C@H](CC(N)=O)NC(=O)[C@H](CO)NC(=O)[C@H](CO)NC(=O)[C@H](Cc1c[nH]cn1)NC(=O)[C@H](CO)NC(=O)[C@H](CC(C)C)NC(=O)[C@H](Cc1ccccc1)NC(=O)[C@H](CC(N)=O)NC(=O)[C@H](C)NC(=O)[C@H](CC(C)C)NC(=O)[C@H](CCCNC(=N)N)NC(=O)[C@H](CCC(N)=O)NC(=O)[C@@H](NC(=O)[C@H](C)NC(=O)[C@@H]1CSSC[C@H](NC(=O)[C@H](CCCCN)NC(=O)[C@H](CCCNC(=N)N)NC(=O)CC[C@H](NC(=O)CCCCCCCCCCCCCCCCCCC(=O)O)C(=O)O)C(=O)N[C@@H](CC(N)=O)C(=O)N[C@@H]([C@@H](C)O)C(=O)N[C@@H](C)C(=O)N[C@@H]([C@@H](C)O)C(=O)N1)[C@@H](C)O)C(=O)N[C@@H](CC(C)C)C(=O)N1CCC[C@H]1C(=O)N1CCC[C@H]1C(=O)N[C@H](C(=O)N[C@@H](CC(N)=O)C(=O)N[C@H](C(=O)NCC(=O)N[C@@H](CO)C(=O)N[C@@H](CC(N)=O)C(=O)N[C@H](C(=O)N[C@@H](Cc1ccc(O)cc1)C(N)=O)[C@@H](C)O)C(C)C)[C@@H](C)O
B7: N-alpha-[(S)-4-Carboxy-4-(17-carboxyheptadecanoylamino)butyryl]-Arg-[Arg17]-pramlintide (peptide)
peptide: X1-RKCNTATCATQRLANFLRHSSNNFGPILPPTNVGSNTY-NH2
modifications: disulfide 3-8
SMILES: CC[C@H](C)[C@H](NC(=O)[C@@H]1CCCN1C(=O)CNC(=O)[C@H](Cc1ccccc1)NC(=O)[C@H](CC(N)=O)NC(=O)[C@H](CC(N)=O)NC(=O)[C@H](CO)NC(=O)[C@H](CO)NC(=O)[C@H](Cc1c[nH]cn1)NC(=O)[C@H](CCCNC(=N)N)NC(=O)[C@H](CC(C)C)NC(=O)[C@H](Cc1ccccc1)NC(=O)[C@H](CC(N)=O)NC(=O)[C@H](C)NC(=O)[C@H](CC(C)C)NC(=O)[C@H](CCCNC(=N)N)NC(=O)[C@H](CCC(N)=O)NC(=O)[C@@H](NC(=O)[C@H](C)NC(=O)[C@@H]1CSSC[C@H](NC(=O)[C@H](CCCCN)NC(=O)[C@H](CCCNC(=N)N)NC(=O)CC[C@H](NC(=O)CCCCCCCCCCCCCCCCC(=O)O)C(=O)O)C(=O)N[C@@H](CC(N)=O)C(=O)N[C@@H]([C@@H](C)O)C(=O)N[C@@H](C)C(=O)N[C@@H]([C@@H](C)O)C(=O)N1)[C@@H](C)O)C(=O)N[C@@H](CC(C)C)C(=O)N1CCC[C@H]1C(=O)N1CCC[C@H]1C(=O)N[C@H](C(=O)N[C@@H](CC(N)=O)C(=O)N[C@H](C(=O)NCC(=O)N[C@@H](CO)C(=O)N[C@@H](CC(N)=O)C(=O)N[C@H](C(=O)N[C@@H](Cc1ccc(O)cc1)C(N)=O)[C@@H](C)O)C(C)C)[C@@H](C)O
B8: N-alpha-[2-(2-{2-[4-(S)-Carboxy-4-(19-carboxynonadecanoylamino)butyrylamino]ethoxy}ethoxy)acetyl]-Arg-[Arg17]-pramlintide (peptide)
peptide: {C20 diacid-γGlu-AEEA}-RKCNTATCATQRLANFLRHSSNNFGPILPPTNVGSNTY-NH2
modifications: disulfide 3-8
SMILES: CC[C@H](C)[C@H](NC(=O)[C@@H]1CCCN1C(=O)CNC(=O)[C@H](Cc1ccccc1)NC(=O)[C@H](CC(N)=O)NC(=O)[C@H](CC(N)=O)NC(=O)[C@H](CO)NC(=O)[C@H](CO)NC(=O)[C@H](Cc1c[nH]cn1)NC(=O)[C@H](CCCNC(=N)N)NC(=O)[C@H](CC(C)C)NC(=O)[C@H](Cc1ccccc1)NC(=O)[C@H](CC(N)=O)NC(=O)[C@H](C)NC(=O)[C@H](CC(C)C)NC(=O)[C@H](CCCNC(=N)N)NC(=O)[C@H](CCC(N)=O)NC(=O)[C@@H](NC(=O)[C@H](C)NC(=O)[C@@H]1CSSC[C@H](NC(=O)[C@H](CCCCN)NC(=O)[C@H](CCCNC(=N)N)NC(=O)COCCOCCNC(=O)CC[C@H](NC(=O)CCCCCCCCCCCCCCCCCCC(=O)O)C(=O)O)C(=O)N[C@@H](CC(N)=O)C(=O)N[C@@H]([C@@H](C)O)C(=O)N[C@@H](C)C(=O)N[C@@H]([C@@H](C)O)C(=O)N1)[C@@H](C)O)C(=O)N[C@@H](CC(C)C)C(=O)N1CCC[C@H]1C(=O)N1CCC[C@H]1C(=O)N[C@H](C(=O)N[C@@H](CC(N)=O)C(=O)N[C@H](C(=O)NCC(=O)N[C@@H](CO)C(=O)N[C@@H](CC(N)=O)C(=O)N[C@H](C(=O)N[C@@H](Cc1ccc(O)cc1)C(N)=O)[C@@H](C)O)C(C)C)[C@@H](C)O
B9: N-alpha-[(S)-4-Carboxy-4-(19-carboxynonadecanoylamino)butyryl]-His-[His1,His17]-pramlintide (peptide)
peptide: HHCNTATCATQRLANFLHHSSNNFGPILPPTNVGSNTY-NH2
modifications: disulfide 3-8; not fully specified (N-terminus); printed as N-alpha-[(S)-4-Carboxy-4-(19-carboxynonadecanoylamino)butyryl]-His-[His1,His17]-pramlintide

These binders were tested against T1, Amylin 3(a) receptor (human calcitonin …) (assay: cell-based or functional assay).

Potency Luciferase	Binder
30 pmol/L	B1
900 pmol/L	B2
100 pmol/L	B3
2000 pmol/L	B4
80 pmol/L	B5
100 pmol/L	B6
50 pmol/L	B7
100 pmol/L	B8
100 pmol/L	B9
